Laboratory results: patent publication US9260505B2, “Methods for screening for binding partners of G-protein coupled receptors” (Heptares Therapeutics Limited, priority 2007, dated 2016)
Substitutions are numbered along the chain they refer to. In names and notes the source's numbering stands. Several values for one entry are separate records, joined by “and”; a condition that tells them apart may be missing. Equal values may be shown once. Read-outs that look alike come from different tables or passages of the source.

What was measured:
[1] = Thermostability of detergent-solubilised βAR34-424 and mutants ([3H]-DHA binding after heating 30 min)
Description: Binding assays were performed using [^3H]-dihydroalprenolol (DHA) as radioligand as described under “Methods”. Samples were heated for 30 minutes at different temperatures before the assay. […] Data points are from duplicates of one single experiment.
Single point binding assays contained 20 mM Tris pH 8, 0.4 M NaCl, 1 mM EDTA, 0.1% DDM (or corresponding detergent) with 50 nM [^3H]-DHA and 20-100 μg membrane protein in a final volume of 120 μl; equilibration was for 1 h at 4° C. Thermostability was assessed by incubating the binding assay mix, with or without [^3H]-DHA at the specified temperature for 30 minutes; reactions were placed on ice and [^3H]-DHA added as necessary and equilibrated for a further hour. Receptor-bound and free radioligand were separated by gel filtration as described previously[18]. […] Radioactivity was counted on a Beckman LS6000 liquid scintillation counter and data were analyzed by nonlinear regression using Prism software (GraphPad).

[2] = Thermostability of β adrenergic receptors expressed in mammalian cells, minus-ligand format (FIG. 26); settings: 0.1% dodecylmaltoside, apo-state heated, 3H-DHA
Description: The resulting mutants were transiently expressed in mammalian cells, solubilised in 0.1% dodecylmaltoside and assayed for thermostability in the minus-ligand format (heating the apo-state, quenching on ice, adding 3H-DHA).

[3] = Thermostability of solubilised adenosine A2a receptor and mutants; format: physicochemical; settings: for Tm + agonist / Tm + antagonist / Tm − agonist / Tm − antagonist: 1% DDM, no glycerol; for Tm + agonist: agonist-occupied; for Tm + antagonist: antagonist-occupied; for Tm − agonist / Tm − antagonist: apo-state; for Tm: ZM241385 bound
Description: • 1. 315 site-directed mutants made between residues 2-316 of A2aR. • 2. All of these mutants have been assayed for thermostability using an assay measuring agonist and antagonist binding after the heating step (Ligand(−) format as described in FIG. 12). • a. […] Mutations have been combined to generate mutants in a putative antagonist conformation. Wildtype A2aR has a Tm of 31° C. with ZM241385 bound.

βAR-m23 = βAR-m23 (Meleagris gallopavo, UniProt P07700, A282L/C116L/F327A/F338M/M90V/R68S/Y227A); format: binding, turkey
Chain of βAR-m23 (P07700 34-424 R68S/M90V/C116L/Y227A/A282L/F327A/F338M): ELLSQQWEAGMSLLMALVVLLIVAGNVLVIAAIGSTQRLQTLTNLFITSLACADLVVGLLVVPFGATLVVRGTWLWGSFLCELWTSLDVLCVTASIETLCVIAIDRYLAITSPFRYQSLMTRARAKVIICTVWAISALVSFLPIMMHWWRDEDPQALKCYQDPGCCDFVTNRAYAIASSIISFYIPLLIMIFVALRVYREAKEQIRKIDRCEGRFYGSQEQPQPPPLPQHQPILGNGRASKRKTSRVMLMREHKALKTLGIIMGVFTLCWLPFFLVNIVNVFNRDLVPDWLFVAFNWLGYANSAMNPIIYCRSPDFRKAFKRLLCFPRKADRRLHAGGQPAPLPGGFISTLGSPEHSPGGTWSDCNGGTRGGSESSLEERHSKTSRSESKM

β1AR36-M23 = biological target: T1, β1AR36-M23 (Meleagris gallopavo, UniProt P07700, A282L/C116L/C358A/DEL244-271/DEL277-278/F327A/F338M/M90V/R68S/Y227A); assay: biochemical; format: binding, turkey; settings: for kd: 10° C., footnote 1 averaged from two b1AR surfaces, footnote 2 preliminary results
T1 construct: beta-36 construct (amino acid residues 34-367 of the turkey beta receptor containing the following changes); His6 (C); made in house; host or cells: insect cells, baculovirus (stated for the beta-36 construct in the crystallisation text)
T1 sequence (P07700 other isoform, or with tags, fused parts or gaps with the stated changes): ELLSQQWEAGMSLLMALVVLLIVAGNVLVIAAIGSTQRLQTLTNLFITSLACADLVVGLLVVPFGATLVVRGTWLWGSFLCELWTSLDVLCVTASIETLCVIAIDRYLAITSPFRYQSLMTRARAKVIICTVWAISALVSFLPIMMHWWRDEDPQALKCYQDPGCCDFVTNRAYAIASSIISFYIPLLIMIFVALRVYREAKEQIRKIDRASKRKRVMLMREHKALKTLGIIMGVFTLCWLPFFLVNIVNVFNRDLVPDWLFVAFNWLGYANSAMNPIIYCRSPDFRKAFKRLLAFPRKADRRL
Description: Binding studies were performed at 10° C. using a Biacore S51 optical biosensor equipped with a streptavidin-coated CM5 chip and equilibrated with running buffer (20 mM trisHCl, 150 mM NaCl, 1 mM EDTA, 1% DMSO, 0.1% decyl maltoside, pH 7.8).
Flow through of the compound allowed the on rate to be determined. Subsequent washing enabled determination of the off rate. These parameters could then be used to determine a kinetic affinity measurement (Kd).

[4] = Thermostability of neurotensin receptor and mutants (3H-neurotensin binding); format: physicochemical; settings: neurotensin bound
Description: • 1. 340 site-directed mutants have been made between residues 61-400 of NTR. • 2. Initially, all of these mutants were assayed for thermostability using an assay measuring ^3H-neurotensin (agonist) binding after the heating step. […] Mutants tested for thermostability by heating in the absence of the agonist were re-tested using a slightly different assay where the mutants were heated in the presence of ^3H-neurotensin (Ligand(+) format in FIG. 12). […] All of these also have increased thermostability. • 5. Preferred combinations are • a. Nag7m F358A+A86L+I260A+F342A Tm 51° C. (neurotensin bound) • b. Nag7n F358A+H103A+I260A+F342A Tm 51° C. (neurotensin bound)

A2aR mutant Rag 23 = settings: detergent-solubilised
[5] = apo-state heated 30 min, E. coli expressed, DDM-solubilised, mean ± S.E. from duplicates

With “m20: βAR34-424 mutant R68S, M90V, F327A, A334L” the Tm [1, 5] was 48.4 ± 0.7 °C.

With “turkey β1: turkey β1 adrenergic receptor transiently expressed in mammalian cells” the “apparent Tm” value [2] was 23 °C.

In the case of “wt: wild-type human adenosine A2a receptor [reference compound]”, the “Tm, Agonist-binding” value ([3]; 0.003% LDAO) is reported as 28 °C, the “Tm, Antagonist-binding” value ([3]; 0.003% LDAO) is reported as 32 °C and the “Tm, Agonist-binding” value ([3]; 0.006% FC12) is reported as 37 °C. The “Tm, Antagonist-binding” value ([3]; 0.006% FC12) was 43 °C, the “Tm, Agonist-binding” value ([3]; 0.01% DDM) was 27 °C and the “Tm, Antagonist-binding” value ([3]; 0.01% DDM) was 25 °C. The “Tm, Agonist-binding” value ([3]; 0.1% DM) was 23 °C, the “Tm, Antagonist-binding” value ([3]; 0.1% DM) was 10 °C and the “Tm, Agonist-binding” value ([3]; 0.3% NM) was 22 °C. For the same molecule, the “Tm, Antagonist-binding” value ([3]; 0.3% NM) was under 4 °C, the “Tm, Agonist-binding” value ([3]; 0.6% OG) was under 9 °C and the “Tm + agonist” value [3] was 29 °C. For the same molecule, the “Tm + antagonist” value [3] was 32 °C, the “Tm − agonist” value [3] was 21 °C and the “Tm − antagonist” value [3] was 31 °C. The Tm [3] was 31 °C.

With “1-[4,6-propyl-^3H]-dihydroalprenolol [[^3H]-dihydroalprenolol]” the Kd (βAR-m23; membranes, n=2) was 6.5 ± 0.2 nM and the Kd (βAR-m23; semipurified receptor) was 12.5 nM.

In the case of “m6-9: βAR34-424 mutant R68S, Y227A, A234L, A282L, A334L”, the Tm [1, 5] is reported as 43.7 ± 0.4 °C.

Work on “m6-4: βAR34-424 mutant R68S, Y227A, A234L, A282L” yielded a Tm [1, 5] of 41.6 ± 0.1 °C.

For “m7-7: βAR34-424 mutant M90V, Y227A, F338M”, the Tm [1, 5] was 45.2 ± 2.0 °C.

In the case of OCc1cc(C(O)CNCCCCCCOCCCCc2ccccc2)ccc1O (centres unmarked) [Salmeterol], the Kd (β1AR36-M23) is reported as 2500 ± 300 nM, the kd (β1AR36-M23) is reported as “(9.5 ± 0.4) × 10^−2 s^−1” and the “binding strength compared with alprenolol or propranolol” value (β1AR36-M23; in words) is reported as “bound the receptor much more weakly”. For the same molecule, the “dissociation rate compared with the other compounds” value (β1AR36-M23; in words) was “dissociated much faster”.

In the case of “m10-4: βAR34-424 mutant R68S, M90V, V230A, A334L”, the Tm [1, 5] is reported as 46.9 ± 1.0 °C.

“m7-1: βAR34-424 mutant M90V, A282L, F338M” showed a Tm [1, 5] of 43.0 ± 0.8 °C.

“m6-10: βAR34-424 mutant R68S, Y227A, A282L, A334L” gave a Tm [1, 5] of 47.4 ± 1.1 °C.

In the case of C=CCc1ccccc1OC[C@@H](O)CNC(C)C [alprenolol], the Kd (β1AR36-M23) is reported as 44 ± 1 nM and the kd (β1AR36-M23) is reported as “(6.3 ± 0.1) × 10^−3 s^−1”.

Work on “Wildtype NTR: wild-type neurotensin receptor [reference compound]” yielded a Tm [4] of 35 °C.

In the case of human β1: human β1 adrenergic receptor, the “apparent Tm” value [2] is reported as about 12 °C.

For “m23: βAR34-424 mutant R68S, M90V, Y227A, A282L, F327A, F338M”, the Tm ([1]; Ni-NTA partially purified, in DDM) was 52 °C, the Tm ([1]; Ni-NTA partially purified, in DM) was 48 °C and the Tm ([1]; Ni-NTA partially purified, in LDAO) was 23 °C. The Tm ([1]; Ni-NTA partially purified, in NG) was 25 °C, the Tm ([1]; Ni-NTA partially purified, in OG) was 17 °C and the “Tm with antagonist bound” value ([1]; [3H]-DHA bound during heating) was 55 °C. The “increase in Tm with bound antagonist” value ([1]; antagonist bound versus without antagonist) was 2 °C and the Tm [1, 5] was 52.8 °C and 52.8 ± 1.4 °C.

In the case of CCNC(=O)[C@H]1O[C@@H](n2cnc3c(N)ncnc32)[C@H](O)[C@@H]1O [[^3H]NECA], the Kd (A2aR mutant Rag 23) is reported as 21 ± 1 nM.

With “m6-5: βAR34-424 mutant R68S, A234L, A282L, A334L” the Tm [1, 5] was 41.9 ± 0.5 °C.

B1: Rant17: A2aR mutant A54L + K122A + L235A (protein, UniProt P29274 1-412, looked up, variant A54L K122A L235A)
Adenosine receptor A2a: MPIMGSSVYITVELAIAVLAILGNVLVCWAVWLNSNLQNVTNYFVVSLAAADILVGVLAIPFAITISTGFCAACHGCLFIACFVLVLTQSSIFSLLAIAIDRYIAIRIPLRYNGLVTGTRAAGIIAICWVLSFAIGLTPMLGWNNCGQPKEGKNHSQGCGEGQVACLFEDVVPMNYMVYFNFFACVLVPLLLMLGVYLRIFLAARRQLKQMESQPLPGERARSTLQKEVHAAKSAAIIVGLFALCWLPLHIINCFTFFCPDCSHAPLWLMYLAIVLSHTNSVVNPFIYAYRIREFRQTFRKIIRSHVLRQQEPFKAAGTSARVLAAHGSDGEQVSLRLNGHPPGVWANGSAPHPERRPNGYALGLVSGGSAQESQGNTGLPDVELLSHELKGVCPEPPGLDDPLAQDGAGVS
For B1, the Tm [3] was “Tm 48 °C (ZM241385 bound)”.

B2: Rant21: A2aR mutant A54L, T88A, V239A + K122A (protein, UniProt P29274 1-412, looked up, variant A54L T88A V239A K122A)
Adenosine receptor A2a: B1 Adenosine receptor A2a with T88A, A235L, V239A
In the case of B2, the “Tm, Antagonist-binding” value ([3]; 0.003% LDAO) is reported as 42 °C, the “Tm, Antagonist-binding” value ([3]; 0.006% FC12) is reported as 49 °C and the “Tm, Antagonist-binding” value ([3]; 0.01% DDM) is reported as 39 °C. The “Tm, Antagonist-binding” value ([3]; 0.1% DM) was 28 °C, the “Tm, Antagonist-binding” value ([3]; 0.3% NG) was 22 °C and the “Tm, Antagonist-binding” value ([3]; 0.3% NM) was 25 °C. For the same molecule, the “Tm, Antagonist-binding” value ([3]; 0.6% OG) was 23 °C, the “Tm + antagonist” value [3] was 49 °C and the “Tm − antagonist” value [3] was 41 °C. The Tm [3] was “Tm 49 °C (ZM241385 bound)”.

B3: Rant19: A2aR mutant A54L, T88A, V239A + A204L (protein, UniProt P29274 1-412, looked up, variant A54L T88A V239A A204L)
Adenosine receptor A2a: B1 Adenosine receptor A2a with T88A, A122K, A204L, A235L, V239A
In the case of B3, the Tm [3] is reported as “Tm 47 °C (ZM241385 bound)”.

B4: Rag 1: A2aR mutant A184L/R199A/L272A (protein, UniProt P29274 1-412, looked up, variant A184L R199A L272A)
Adenosine receptor A2a: B1 Adenosine receptor A2a with L54A, A122K, A184L, R199A, A235L, L272A
For B4, the “Tm + agonist” value [3] was 34 °C and the “Tm − agonist” value [3] was 26 °C.

B5: Rant 5: A2aR mutant A54L/T88A/V239A (protein, UniProt P29274 1-412, looked up, variant A54L T88A V239A)
Adenosine receptor A2a: B1 Adenosine receptor A2a with T88A, A122K, A235L, V239A
With B5 the “Tm + antagonist” value [3] was 46 °C and the “Tm − antagonist” value [3] was 42 °C.

B6: Nag7m: rat neurotensin receptor mutant F358A+A86L+I260A+F342A (protein, UniProt P20789 1-424, looked up, variant F358A A86L I260A F342A)
Neurotensin receptor type 1: MHLNSSVPQGTPGEPDAQPFSGPQSEMEATFLALSLSNGSGNTSESDTAGPNSDLDVNTDIYSKVLVTAIYLALFVVGTVGNSVTLFTLARKKSLQSLQSTVHYHLGSLALSDLLILLLAMPVELYNFIWVHHPWAFGDAGCRGYYFLRDACTYATALNVASLSVERYLAICHPFKAKTLMSRSRTKKFISAIWLASALLAIPMLFTMGLQNRSGDGTHPGGLVCTPIVDTATVKVVIQVNTFMSFLFPMLVISILNTVAANKLTVMVHQAAEQGRVCTVGTHNGLEHSTFNMTIEPGRVQALRHGVLVLRAVVIAFVVCWLPYHVRRLMFCYISDEQWTTALFDFYHYFYMLTNALAYVSSAINPILYNLVSANFRQVFLSTLACLCPGWRHRRKKRPTFSRKPNSMSSNHAFSTSATRETLY
Molecule B6 has a Tm [4] of 51 °C.

B7: Nag7n: rat neurotensin receptor mutant F358A+H103A+I260A+F342A (protein, UniProt P20789 1-424, looked up, variant F358A H103A I260A F342A)
Neurotensin receptor type 1: B6 Neurotensin receptor type 1 with L86A, H103A
With B7 the Tm [4] was 51 °C.
